First the molecules themselves.
B1: HDV Ribozyme (parent)
chain: GGCCGGCAUGGUCCCAGCCUCCUCGCUGGCGCCGGCUGGGCAACAUUCCGAGGGGACCGUCCCCUCGGUAAUGGCGAAUGGGACCCA

The variants in this series derive from B1. The experiment in a line: self-cleavage, relative activity (ratio to wild type); higher = more cleavage; co-transcriptional.
As for C48G C85G, the self-cleavage worked out at 0.875. Next, G2A G35U: 0.0602. For the variant C33U C36G, the self-cleavage turned out to be 0.0665. On to G6U U65G, for which the self-cleavage was determined as 0.453. Next, G38U G53A: 0.369; C41U G55C: 0.885. In the case of U12G A56U, the self-cleavage is 1.22.

In the case of G35C C66A, the self-cleavage was determined as 0.253. In the case of G11C G34U, the self-cleavage stood at 0.0302. Next, C26G G80U: 0.261. In the case of G10U U46C, the self-cleavage was found to be 0.352.

Take C15G A71C: the self-cleavage was 0.222. Next, U79G G80A: 0.249.

Turning to A70C G76C, the self-cleavage was determined as 0.796. Next, A43U C57A: 0.69. Regarding U65C A70G, the self-cleavage was found to be 0.705. Take C4A A71C: the self-cleavage turned out to be 0.156. C18A U60A: the self-cleavage worked out at 0.135.

Regarding G17A U60C, the self-cleavage is 0.522.

For the variant G74U G80C, the self-cleavage is 0.164.

For C32U A70U, the self-cleavage was 0.892. A51C C66U: the self-cleavage is 0.974.

As to G28U A77C, the self-cleavage was 0.0475. Next, U60C G76U: 1.05; C22U C58G: 0.511. The figure for G54A A87G is 0.877; for G2U A77G it is 0; for A42C C44A it is 0.285. Next, G40A U79A: 0.513; G76C A87C: 1.08; C36A U37C: 0.489. On to C14U A43U, for which the self-cleavage was 0.443. The figure for G1U U69C is 0.259. The figure for C19A U27G is 0.158; for G1U U12G it is 0.369; for G10C G76A it is 1.2.

For C18A G76U, the self-cleavage worked out at 0.228. The figure for C26A C33U is 0.796.

Regarding A16U G35A, the self-cleavage came out at 0.342. Next, C26G G50C: 0.997; C7G C14U: 0.196. Next, U12A A71U: 0.262; U27G G40C: 0.0639. Next, C30U G68A: 0.546. On to C18U G39U, for which the self-cleavage stood at 0.0997. The figure for U72A C86A is 0.79; for A56C G59U it is 0.848; for G50C C63A it is 0.305. For G34A G35A, the self-cleavage is 0.145. Next, U47C C49G: 0.978. On to C3A G29U, for which the self-cleavage stood at 0.0316. Turning to C14A G25A, the self-cleavage came out at 0.141. For C19U U20G, the self-cleavage amounted to 0.0594. For the variant C7A C75U, the self-cleavage amounted to 0.131. The figure for C33G G67A is 0.089; for G38U G73U it is 0.146. The figure for G11U C64U is 0.519; for G59A G74U it is 0.561; for G34U G67A it is 0.115.

On to G55U G59A, for which the self-cleavage amounted to 1.14. The figure for C7G C24G is 0.123; for C24G C49A it is 0.0804. Turning to U27C U60G, the self-cleavage is 0.875. Next, G6A U9G: 0.653. The figure for U23C C33G is 0; for C32U U65A it is 1.08; for U23C G50U it is 0.789. Regarding G31A C62U, the self-cleavage was determined as 0.554.

On to G31A C62G, for which the self-cleavage worked out at 0.317. The figure for G10C G39C is 0.359; for G2U G40C it is 0.0455. With G53A A87G, the self-cleavage worked out at 0.995. For the variant G59U C62A, the self-cleavage stood at 0.831. The figure for G59A C75A is 0.163; for U9A G80A it is 0.402; for U46A C49G it is 0.415. Next, G52C G80A: 0.475. The figure for G25A G82A is 0.0978; for C57U C66U it is 0.87; for C64U A78C it is 0.138.

On to C33G C62G, for which the self-cleavage was determined as 0.196. Next, G2C G59C: 0.0923; C7G A43G: 0; A70U G82U: 0.567. A43U C61G: the self-cleavage was 0.528. Turning to G1A G67A, the self-cleavage amounted to 0.0665. U60G G82U: the self-cleavage was determined as 0.309.

Regarding G52A A77G, the self-cleavage was found to be 0.89. On to U47G G81A, for which the self-cleavage is 0.237. Next, C18A G68A: 0.237; U46A U72C: 0.655. Next, C18G C32A: 0.166; G1U U23A: 0.203; G80C G82C: 0.166.

In the case of C63G G82A, the self-cleavage came out at 0.219. Consider G5A A42U, for which the self-cleavage amounted to 0.111.

As to G31A U47C, the self-cleavage came to 0.424. Consider G17A C84G, for which the self-cleavage amounted to 0.623. The figure for G10A C63G is 0.566; for U72C C86A it is 0.712; for U27G A43C it is 0.166.

For the variant G17C U69G, the self-cleavage was found to be 0.317. Consider G1A G52A, for which the self-cleavage stood at 0.138. Next, C19G C22U: 0.0804; C33A A51G: 0.289; C14U G53A: 1.11.

As for C14U G53C, the self-cleavage stood at 1.07. Next, G35C G67U: 0.133; G35U G54U: 0.448. The figure for C7A C44A is 0.0978; for G54C C57G it is 1.05.

For G11U G40A, the self-cleavage came out at 0.387. Turning to G25C C63U, the self-cleavage worked out at 0.0739. The figure for G2A U69C is 0.332; for C33U A70U it is 0.755. Next, U46C C75G: 0.469.

For U69G A87C, the self-cleavage came to 0.822. On to A8C U46G, for which the self-cleavage worked out at 0.554.

Consider G1U G53A, for which the self-cleavage is 0.32. As to A8U A87U, the self-cleavage is 0.963. Next, C13U A56U: 0.554; U20C A77G: 0.208. The figure for A56C C58A is 0.923. As for U9A C49U, the self-cleavage came out at 0.831.

Turning to U9A G74U, the self-cleavage is 0.585. Turning to C30U A43C, the self-cleavage amounted to 0.158. The figure for C22G A42G is 0.

Consider G59U G76U, for which the self-cleavage amounted to 1.08. In the case of G28A C57G, the self-cleavage stood at 0.

As for G28A C57U, the self-cleavage stood at 0.163. Next, G67U C86G: 0.945; C62A G67C: 0.78. For C33G C36A, the self-cleavage turned out to be 0.107. As to C22G C66G, the self-cleavage came to 0.0845.

G25A C48G: the self-cleavage was 0.122.

With G52C G74A, the self-cleavage came to 0.486. Consider C19U U69A, for which the self-cleavage stood at 0.212. Next, C21A G73C: 0.0678; G50A G80A: 0.415. Consider G1A U47A, for which the self-cleavage worked out at 0.145.

G10C C84U: the self-cleavage was determined as 0.604. For the variant C7G C64A, the self-cleavage turned out to be 0.0831. As for U12G G82C, the self-cleavage worked out at 0.633. Next, C3G C86G: 1.14.

In the case of G31C C32U, the self-cleavage amounted to 0.0723. Next, C4A C57U: 0.237; C4U C41U: 0.567. Regarding U12G A70C, the self-cleavage is 0.462. For the variant G40A G67A, the self-cleavage came to 1.12. Next, U9A U12G: 1.06; A51C G74A: 0.479. Next, C26U G39A: 0.599; A71U U72G: 0.684; U9G A78G: 0.166. G5A C86U: the self-cleavage was 0.396. Next, A42G C62U: 0.808; C36U U37C: 0.867; G2C G25A: 0.0528.

As to G39A C44U, the self-cleavage is 0.185. Next, A43C C85G: 0.519; G53C G67C: 0.427; G29C G73C: 0.095. The figure for G55A U60G is 0.798; for G5A A56C it is 0.107; for G25U G68U it is 0.225. Regarding G2A C41U, the self-cleavage worked out at 0.198. On to C41U A42C, for which the self-cleavage was 0.519.

The values above are taken from the RNAGym collection of RNA variant scans (doi:10.7554/elife.80360).
